Reference: PMC10267887
Several values for one entry are separate records, joined by “and”; a condition that tells them apart may be missing. Equal values may be shown once.

Assays:
[1] = target: fibroblast growth factor 2 fused to GFP (FGF2-GFP), His-tagged (UniProt P09038); assay: dual(+1)-FCS (brightness analysis by fluorescence correlation spectroscopy); 200 nM FGF2-GFP on immobilised GUVs of plasma-membrane-like lipids with 2 mol % PI(4,5)P2, HEPES buffer (25 mM HEPES, 150 mM NaCl, pH 7.4); average oligomeric state per GUV; FINAL state (t >= 240 min), permeabilized (leaky) GUVs
[2] = target: fibroblast growth factor 2 fused to GFP (FGF2-GFP), His-tagged (UniProt P09038); assay: dual(+1)-FCS (brightness analysis by fluorescence correlation spectroscopy); as a1; INITIAL state (t = 60-120 min), leaky, (leaky to leaky) GUVs
[3] = target: fibroblast growth factor 2 fused to GFP (FGF2-GFP), His-tagged (UniProt P09038); assay: dual(+1)-FCS (brightness analysis by fluorescence correlation spectroscopy); as a1; FINAL state (t >= 240 min), (leaky to leaky) GUVs only

“fibroblast growth factor 2 fused to GFP (FGF2-GFP), His-tagged (from UniProt P09038 1-288) (natural protein)” was tested, and the stoichiometry N [1] was 2 and 6, the stoichiometry N [2] was 2 and 6 and the stoichiometry N [3] was < 10 m.u. and 4.21 m.u.
